Laboratory results reported in paper PMC11154708.

Target: Rad51 (S. cerevisiae) (UniProt P25454)
Experiment: co-IP; Rad51 immunoprecipitated with anti-Rad51 antibody from yeast lysates (Rad51 overexpressed from a plasmid), IP fraction blotted for Hsp82 and Aha1; strains WT, hda1Δ, aha1Δ and hsp82 mutant strains (K27Q, K27R, K274Q, K274R, K178R); rad51Δ as negative control; blots quantified with Image J

Chain of UniProt P25454 (P25454 whole entry): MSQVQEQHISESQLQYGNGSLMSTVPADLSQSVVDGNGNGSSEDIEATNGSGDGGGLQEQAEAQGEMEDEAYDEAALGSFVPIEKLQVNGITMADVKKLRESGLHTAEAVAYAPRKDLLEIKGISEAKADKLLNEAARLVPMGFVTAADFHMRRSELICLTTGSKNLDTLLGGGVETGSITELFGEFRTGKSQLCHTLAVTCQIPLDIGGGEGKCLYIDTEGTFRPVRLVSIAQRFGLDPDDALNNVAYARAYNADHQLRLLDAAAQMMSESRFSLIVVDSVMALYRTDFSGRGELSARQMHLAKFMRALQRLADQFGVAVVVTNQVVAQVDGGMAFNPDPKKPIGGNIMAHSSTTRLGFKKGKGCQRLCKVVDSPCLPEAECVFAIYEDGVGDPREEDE

Hsp82 (WT) (from UniProt P02829 1-709) (natural protein)
fold reduction of association in the aha1Δ strain against the WT strain: 2 fold | fold reduction of association in the hda1Δ strain against the WT strain: 5 fold
